Experiments:
[1] = target: T1, Cdc25C peptide (amino acid 211 to 221 of Cdc25C; LYRSPSMPENL)
T1 chain: LYRSPSMPENL

[2] = target: T2, TAT-S216A peptide
T2 chain: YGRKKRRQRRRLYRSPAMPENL

[3] = target: T3, GST-Cdc25C (amino acid 200-256)
T3 sequence (P30307 whole entry, looked up): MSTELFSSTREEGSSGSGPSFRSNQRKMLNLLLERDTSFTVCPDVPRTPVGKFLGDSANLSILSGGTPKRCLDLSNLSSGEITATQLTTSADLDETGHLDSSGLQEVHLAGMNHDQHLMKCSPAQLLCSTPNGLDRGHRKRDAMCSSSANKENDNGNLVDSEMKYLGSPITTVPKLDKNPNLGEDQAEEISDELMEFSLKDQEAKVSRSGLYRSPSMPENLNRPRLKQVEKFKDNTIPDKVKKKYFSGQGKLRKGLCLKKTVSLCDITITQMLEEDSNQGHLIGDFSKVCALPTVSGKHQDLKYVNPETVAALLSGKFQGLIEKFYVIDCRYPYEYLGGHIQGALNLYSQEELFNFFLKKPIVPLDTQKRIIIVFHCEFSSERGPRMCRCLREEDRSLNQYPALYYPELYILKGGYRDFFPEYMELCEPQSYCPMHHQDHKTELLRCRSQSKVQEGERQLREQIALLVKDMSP

[4] = target: TAT-S216 peptide

B1: c-myc-tagged Chk2/HuCds1 (peptide)
chain: LYRSPSMYENL
With B1 the “in vitro phosphorylation of the Cdc25C peptide by Chk2/HuCds1” value [1] was “phosphorylation of Cdc25C peptide (residues 200-256) (SEQ ID NO:1) mediated by hChk1 (SEQ ID NO:3) and Chk2/HuCds1 (SEQ ID NO:4)”.

B2: HA-tagged hChk1 (peptide)
chain: LYRSPSMFENL
For B2, the “phosphorylation of the peptide by hChk1” value [2] was “TAT-S216 but not TAT-S216A was efficiently phosphorylated by hChk1”, the “in vitro phosphorylation of the Cdc25C peptide by hChk1” value [1] was “phosphorylation of Cdc25C peptide (residues 200-256) (SEQ ID NO:1) mediated by hChk1 (SEQ ID NO:3) and Chk2/HuCds1 (SEQ ID NO:4)” and the “in vitro phosphorylation of GST-Cdc25C by immunoprecipitated hChk1 (32P-ATP, SDS-PAGE autoradiogram)” value [3] was “hChk1 (SEQ ID NO:3) was capable of phosphorylating a Cdc25C protein (residues 20-256) (SEQ ID NO:1) fused to GST”. For the same protein, the “phosphorylation of the peptide by hChk1” value [4] was “TAT-S216 but not TAT-S216A was efficiently phosphorylated by hChk1”.
